Test results: patent US20230242902A1, “A HIGHLY ERROR-PRONE […] R[…] FOR TARGETED CONTINUOUS EVOLUTION IN VIVO” (The Regents of the University of California, priority 2017, published 2023)

System: p1
Assay: p1 copy number by p1-encoded mKate2 fluorescence
Format: cell-based, S. cerevisiae
Conditions: OR-Y24, measured in triplicate
Outline: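 Read-out is mKate2 fluorescence of saturated OR-Y24 cultures, measured by flow cytometry or by plate reader with OD600 normalization. Flow values were converted by a qPCR-derived linear calibration; plate values were scaled to a w.t. TP-DNAP1 control.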

| Molecule | Mean fold-increase over w.t. (p1 copy number) [fold] |
| --- | --- |
| T706G: TP-DNAP1 variant (protein) MDYKDKALNDLRNVYADFDSLPLDFRQILIKDRATLLQKEDVEKKILERQEDAKKYAEYLKQSEIPERISLPNIKRHKGVSISFEETSEDMVLEPRPFIFDGLNIRCFRRETIFSLKNKILNMVKESSSFKNVSRQSVSFMYFKIFNKGKVIASTKSVNIYEDKIDERLEDLCNNFDDVLKKIIDVTYGYESLFVSETYSYVIFYAKSIYFPQPRCVNNWGNNIPNILTFDSFKLFTANKNNVSCIKQCSRFLWQKDFNTLEEMIEYKNGNICIVTPQLHINDVRDIKSFNDIRLYSESPIKTFSVIDNTITYLFYFKEHLGVIFNITKSRHDRRVTKFSPLSKFSDVKNITVCFDIESYFDPEKESNQVNIPFICCASIIYNKVIGNIVDFEGRDCVAQMIEYVVDICGELNISSVELIAHNGGGYDFHYILSSMYNPAAIKNILIRNNSFISFNFAHDGVKFSVKDSYSFLLCSLANASKAFLNEETFKKTDFPHHDLKTADDLYKVYKEWSSVNTEINHVVEKEKLLITSEHIVNFTKNDKSKTLIEWSKDYCRNDVLVLSKVWLEFKNAVEDIFNCELVDQTMTLAGLSYKLFQANMPFDVELRHPNKEDYFNMREALIGGRCISVNGIYKDVLCLDVKSLYPASMAFYDQPYGSFKRVSSRPKDELGIYYVRVTPNRNNKSNFFPIRSHNKITYNNFEESGYIAWYTNVDIDIGLSEGHNIEYIPFDSYGNIGYSWSKKGKIFEKYIKDVLYKLKIKYEKQNNKVKRNVIKIIMNSLWGKFAQKWVNFEYFIKSEDDIDFESEEAYKIWDTDFMLIKKIKESTYSSKPIQNGVFTLSWARYHMKSIWDAGAKEGAECIYSDTDSIFVHKEHFKKNAKFMLNGLKVPIIGSEVGQLELECEFDKLLCAGKKQYMGFYTYFQDGKPCIKEKKRFKGIPSNYIIPELYAHLLSGADKEAKIQFLKFRREWGSVKGYIENKTVKAT | 1.72 |
| T706P: TP-DNAP1 variant (protein) MDYKDKALNDLRNVYADFDSLPLDFRQILIKDRATLLQKEDVEKKILERQEDAKKYAEYLKQSEIPERISLPNIKRHKGVSISFEETSEDMVLEPRPFIFDGLNIRCFRRETIFSLKNKILNMVKESSSFKNVSRQSVSFMYFKIFNKGKVIASTKSVNIYEDKIDERLEDLCNNFDDVLKKIIDVTYGYESLFVSETYSYVIFYAKSIYFPQPRCVNNWGNNIPNILTFDSFKLFTANKNNVSCIKQCSRFLWQKDFNTLEEMIEYKNGNICIVTPQLHINDVRDIKSFNDIRLYSESPIKTFSVIDNTITYLFYFKEHLGVIFNITKSRHDRRVTKFSPLSKFSDVKNITVCFDIESYFDPEKESNQVNIPFICCASIIYNKVIGNIVDFEGRDCVAQMIEYVVDICGELNISSVELIAHNGGGYDFHYILSSMYNPAAIKNILIRNNSFISFNFAHDGVKFSVKDSYSFLLCSLANASKAFLNEETFKKTDFPHHDLKTADDLYKVYKEWSSVNTEINHVVEKEKLLITSEHIVNFTKNDKSKTLIEWSKDYCRNDVLVLSKVWLEFKNAVEDIFNCELVDQTMTLAGLSYKLFQANMPFDVELRHPNKEDYFNMREALIGGRCISVNGIYKDVLCLDVKSLYPASMAFYDQPYGSFKRVSSRPKDELGIYYVRVTPNRNNKSNFFPIRSHNKITYNNFEESPYIAWYTNVDIDIGLSEGHNIEYIPFDSYGNIGYSWSKKGKIFEKYIKDVLYKLKIKYEKQNNKVKRNVIKIIMNSLWGKFAQKWVNFEYFIKSEDDIDFESEEAYKIWDTDFMLIKKIKESTYSSKPIQNGVFTLSWARYHMKSIWDAGAKEGAECIYSDTDSIFVHKEHFKKNAKFMLNGLKVPIIGSEVGQLELECEFDKLLCAGKKQYMGFYTYFQDGKPCIKEKKRFKGIPSNYIIPELYAHLLSGADKEAKIQFLKFRREWGSVKGYIENKTVKAT | 1.73 |
